Read-outs that look alike come from different tables or passages of the source. Values belong to the binder of their own block, whether it stands above or below them.
Legend:
[1] = biological target: T1, human PVRIG expressed on cells (human, UniProt Q6DKI7 41-326); assay: cell-based or functional assay
T1 sequence (looked up): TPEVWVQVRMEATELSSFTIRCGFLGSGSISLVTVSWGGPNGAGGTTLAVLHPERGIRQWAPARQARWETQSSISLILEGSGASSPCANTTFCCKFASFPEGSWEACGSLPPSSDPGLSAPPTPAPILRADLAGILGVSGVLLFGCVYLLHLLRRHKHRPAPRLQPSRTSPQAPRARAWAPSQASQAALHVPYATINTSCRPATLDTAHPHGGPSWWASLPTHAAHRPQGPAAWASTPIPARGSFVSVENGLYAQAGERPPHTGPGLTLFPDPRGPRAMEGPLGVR

[2] = biological target: T1, human PVRIG expressed on cells; assay: cell-based or functional assay; remark: listed apart in the source
[3] = biological target: T2, his-tagged human PVRIG (h-PVRIG-his) recombinant protein (human, UniProt Q6DKI7 41-171, limits assumed); assay: BLI (Fortebio), antibody on Protein A sensor, his-tagged human PVRIG as analyte
T2 construct: Acrobiosystems; also called Human PVRIG-his; human PVRIG recombinant protein; not shown: his tag
T2 sequence (looked up): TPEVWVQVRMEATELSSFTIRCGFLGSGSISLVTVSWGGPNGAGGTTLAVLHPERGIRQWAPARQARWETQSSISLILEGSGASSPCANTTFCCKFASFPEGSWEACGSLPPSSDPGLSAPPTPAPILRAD
Procedure: A Protein A biosensor (Fortebio, #18-5010) was immersed in 200 μL of KB buffer (PBS, pH 7.4, 0.02% tween-20, 0.10% BSA) for 60 s as a wetting treatment. Then an anti-PVRIG antibody was diluted to 10 μg/mL with KB buffer, and the sensor was immersed in 200 μL of the solution until the reading was 1.2 nm. The sensor was immersed in KB buffer for 100 s to remove excess antibody. […] The sensor was placed in the solution for 300 seconds of binding and then in KB buffer for 600 seconds of dissociation. Fitting was performed using a dynamic 1:1 binding mode.

[4] = biological target: T1, human PVRIG expressed on cells; assay: cell-based or functional assay; remark: listed apart in the source
[5] = biological target: T3, human TIGIT expressed on cells (human, UniProt Q495A1 22-244); assay: FACS by the method of Example 2-2 with human TIGIT; numbers not given
T3 construct: whole, on cells; also called cells overexpressing human TIGIT; CHO-K1 cell strain expressing the human TIGIT gene
T3 sequence (looked up): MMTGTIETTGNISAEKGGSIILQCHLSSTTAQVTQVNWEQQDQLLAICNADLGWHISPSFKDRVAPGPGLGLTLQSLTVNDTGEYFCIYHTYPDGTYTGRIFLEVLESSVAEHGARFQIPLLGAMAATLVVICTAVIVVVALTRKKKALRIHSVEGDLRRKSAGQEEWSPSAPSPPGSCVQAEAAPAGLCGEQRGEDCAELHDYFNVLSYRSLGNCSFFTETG

[6] = biological target: T4, human TIGIT recombinant protein (human, UniProt Q495A1 22-141); assay: ELISA by the method of Example 2-2 with human TIGIT; numbers not given
T4 construct: also called human TIGIT antigen (AcroBiosystem, TIT-H52H3); TIGIT protein
T4 sequence (looked up): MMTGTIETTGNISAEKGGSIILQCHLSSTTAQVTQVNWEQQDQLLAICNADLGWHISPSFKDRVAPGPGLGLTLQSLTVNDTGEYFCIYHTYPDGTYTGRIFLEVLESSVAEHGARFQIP

[7] = biological target: T2, his-tagged human PVRIG (h-PVRIG-his) …; assay: ELISA, plate coated with PVRIG protein (his tag)
Procedure: ELISA assays were performed. TIGIT or PVRIG protein (his tag, Acrobiosystems, PVG-H52H4) was dissolved in PBS to 1 μg/mL, and the solution was added to a 96-well plate at 100 μL/well. The plate was coated with the antigen overnight at 4° C. The plate was washed with PBST solution three times. PBST/1% BSA solution was added, and the plate was incubated at 37° C. for 1 h for blocking. After three washes with PBST solution, different concentrations of the trispecific antibodies (diluted with PBST/1% BSA solution) were added, and the plate was incubated at 37° C. for 1.5 h. The plate was washed with PBST solution three times. […] After three washes with PBST solution, TMB solution was added at 100 μL/well. After 5 min of reaction at room temperature, 50 μL of stop solution was added. OD450 values were measured using a microplate reader, and EC₅₀ was calculated.

[8] = biological target: T5, human PD-1 expressed on cells (human, UniProt Q15116 25-288); assay: cell-based or functional assay
T5 sequence (Q15116 25-288 limits assumed): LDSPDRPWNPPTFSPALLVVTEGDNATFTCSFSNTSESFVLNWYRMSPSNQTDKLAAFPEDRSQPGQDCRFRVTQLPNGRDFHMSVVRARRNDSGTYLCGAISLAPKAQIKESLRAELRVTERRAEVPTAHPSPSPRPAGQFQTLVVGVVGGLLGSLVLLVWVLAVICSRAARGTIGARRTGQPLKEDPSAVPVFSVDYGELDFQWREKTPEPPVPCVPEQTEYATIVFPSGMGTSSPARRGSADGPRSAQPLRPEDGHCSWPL

[9] = biological target: T5, human PD-1 expressed on cells; assay: cell-based or functional assay; remark: listed apart in the source

IFNγ, mixed lymphocyte reaction, 4 nM antibody [1]: 912 pg/mL
IFNγ, mixed lymphocyte reaction, 20 nM antibody [1]: 1420 pg/mL
IFNγ, mixed lymphocyte reaction, 100 nM antibody [1]: 2350 pg/mL
PVRIG reporter gene cell activity EC50 [2]: 0.74 nM
kon [3]: 737000 M⁻¹ s⁻¹
PVRIG reporter gene cell activity EC50 [4]: 1.38 nM
B1: Tab5 (antibody, human IgG4 S228P, kappa, F234A L235A, V domains shown)
VH: EVQLVESGGGVVKPGGSLRLSCAASGFTFGTSSMNWVRQAPGKGLEWVAVISFDGTEIHYADSVKGRFTISRDNSKSTVFLQMNSLRPDDTALYYCAKGSGNIYFYSGMDVWGQGTTVTVSS
VL: DIQMTQSPSTLSASVGDRVTITCRAGQSISGWLAWFQQKPGKAPNLLIYETSTLESGVPSRFSGSGSGTEYTLTISSLQPDDFATYYCQQYYSYPLTFGQGTKVEIKR
notes: Anti-PVRIG positive control, IgG4 S228P/F234A/L235A/K447A; also called positive antibody Tab5; CPA.7.021 variable regions on human IgG4/kappa

binding result [5]: binds
binding result [6]: binds
B2: 1708-151-3 (bispecific antibody, human IgG4 S228P, kappa)
heavy: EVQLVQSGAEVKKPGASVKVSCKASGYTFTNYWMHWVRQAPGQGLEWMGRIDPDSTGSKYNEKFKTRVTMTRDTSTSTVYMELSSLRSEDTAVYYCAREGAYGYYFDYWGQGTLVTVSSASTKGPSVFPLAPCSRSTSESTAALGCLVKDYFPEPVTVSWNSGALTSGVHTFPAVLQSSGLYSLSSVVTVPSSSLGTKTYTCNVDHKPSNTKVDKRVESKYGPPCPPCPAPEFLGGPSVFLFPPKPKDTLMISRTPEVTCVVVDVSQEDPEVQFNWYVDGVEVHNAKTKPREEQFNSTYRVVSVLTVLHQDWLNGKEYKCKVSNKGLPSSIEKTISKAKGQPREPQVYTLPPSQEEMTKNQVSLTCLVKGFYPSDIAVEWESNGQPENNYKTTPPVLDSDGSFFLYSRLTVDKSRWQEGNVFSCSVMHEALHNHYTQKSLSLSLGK
light: HVQLVESGGGSVQAGGSLRLSCVASASGFTYRPYCMAWFRQAPGKEREAVAGIDIFGGTTYADSVKGRFTASRDNAGFSLFLQMNDLKPEDTAMYYCAAGDSPDGRCPPLGQGLNYWGQGTQVTVSSGGGGSGGGGSDIQMTQSPSSLSASVGDRVTITCRASENIYSYLAWYQQKPGKSPKLLIYNARTLAEGVPSRFSGSGSGTDFTLTISSLQPEDFATYYCQYHSGSPLPFGGGTKVEIKRTVAAPSVFIFPPSDEQLKSGTASVVCLLNNFYPREAKVQWKVDNALQSGNSQESVTEQDSKDSTYSLSSTLTLSKADYEKHKVYACEVTHQGLSSPVTKSFNRGEC
notes: Anti-PVRIG/TIGIT

EC50 [7]: 0.158 nM
DC:T MLR result, 0.1 nM antibody (unit not given) [8]: 84.8
DC:T MLR result, 1 nM antibody (unit not given) [8]: 97.3
DC:T MLR result, 10 nM antibody (unit not given) [8]: 137
DC:T MLR result, 100 nM antibody (unit not given) [8]: 149
IC50 (read off the curve) [9]: ~1 nM
B3: A17h1-1708-151H7-D (trispecific antibody, human IgG4 S228P, kappa)
heavy: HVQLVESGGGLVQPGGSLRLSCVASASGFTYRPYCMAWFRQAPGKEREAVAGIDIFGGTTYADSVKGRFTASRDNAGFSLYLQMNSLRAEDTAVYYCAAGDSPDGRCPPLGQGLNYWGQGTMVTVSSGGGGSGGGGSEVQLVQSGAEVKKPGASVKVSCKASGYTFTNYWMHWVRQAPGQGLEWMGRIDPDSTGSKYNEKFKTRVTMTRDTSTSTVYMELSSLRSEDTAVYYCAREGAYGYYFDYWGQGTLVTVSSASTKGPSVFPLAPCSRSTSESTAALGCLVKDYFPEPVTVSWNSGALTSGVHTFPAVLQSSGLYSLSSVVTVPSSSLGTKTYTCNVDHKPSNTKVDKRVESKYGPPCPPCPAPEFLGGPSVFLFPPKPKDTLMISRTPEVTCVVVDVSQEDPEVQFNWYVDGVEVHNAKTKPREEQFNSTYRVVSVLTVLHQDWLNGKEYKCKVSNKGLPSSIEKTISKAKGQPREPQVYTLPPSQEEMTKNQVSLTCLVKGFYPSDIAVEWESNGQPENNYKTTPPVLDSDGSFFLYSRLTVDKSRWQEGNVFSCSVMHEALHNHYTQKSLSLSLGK
light: DIQMTQSPSSLSASVGDRVTITCRASENIYSYLAWYQQKPGKSPKLLIYNARTLAEGVPSRFSGSGSGTDFTLTISSLQPEDFATYYCQYHSGSPLPFGGGTKVEIKRTVAAPSVFIFPPSDEQLKSGTASVVCLLNNFYPREAKVQWKVDNALQSGNSQESVTEQDSKDSTYSLSSTLTLSKADYEKHKVYACEVTHQGLSSPVTKSFNRGECGGGGSGGGGSEVQLQESGGGLVQPGGSLRLSCTASGLTFSDYSMSWYRQAPGKGRELVAIISGSGVIAHYVDSVKGRFTISRDNSKNTVYLQMRSLTPEDRAVYYCRAVSDWDDYWGQGTQVTVSS

EC50 [7]: 0.16 nM
DC:T MLR result, 0.1 nM antibody (unit not given) [8]: 118
DC:T MLR result, 1 nM antibody (unit not given) [8]: 136
DC:T MLR result, 10 nM antibody (unit not given) [8]: 151
DC:T MLR result, 100 nM antibody (unit not given) [8]: 152
IC50 (read off the curve) [9]: ~0.8 nM
B4: A17h1-1708-151H7-C (trispecific antibody, human IgG4 S228P, kappa)
heavy: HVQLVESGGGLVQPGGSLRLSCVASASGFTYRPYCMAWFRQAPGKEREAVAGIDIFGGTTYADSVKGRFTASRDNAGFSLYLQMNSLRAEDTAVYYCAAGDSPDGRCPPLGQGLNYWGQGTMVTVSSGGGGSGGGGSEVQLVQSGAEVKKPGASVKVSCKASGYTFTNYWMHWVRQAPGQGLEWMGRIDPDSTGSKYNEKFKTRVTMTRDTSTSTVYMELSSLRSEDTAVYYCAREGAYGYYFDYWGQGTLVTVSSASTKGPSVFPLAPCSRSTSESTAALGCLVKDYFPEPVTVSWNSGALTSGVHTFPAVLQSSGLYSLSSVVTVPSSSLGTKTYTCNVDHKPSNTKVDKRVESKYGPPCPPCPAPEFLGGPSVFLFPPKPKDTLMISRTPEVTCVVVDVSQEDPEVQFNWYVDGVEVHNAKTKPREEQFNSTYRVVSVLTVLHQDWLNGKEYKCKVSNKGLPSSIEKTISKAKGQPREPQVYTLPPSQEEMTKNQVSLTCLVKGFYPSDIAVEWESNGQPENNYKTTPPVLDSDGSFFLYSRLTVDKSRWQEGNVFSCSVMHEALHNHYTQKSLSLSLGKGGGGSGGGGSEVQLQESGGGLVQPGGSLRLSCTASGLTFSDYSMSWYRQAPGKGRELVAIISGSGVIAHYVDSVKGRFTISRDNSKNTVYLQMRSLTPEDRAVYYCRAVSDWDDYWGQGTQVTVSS
light: DIQMTQSPSSLSASVGDRVTITCRASENIYSYLAWYQQKPGKSPKLLIYNARTLAEGVPSRFSGSGSGTDFTLTISSLQPEDFATYYCQYHSGSPLPFGGGTKVEIKRTVAAPSVFIFPPSDEQLKSGTASVVCLLNNFYPREAKVQWKVDNALQSGNSQESVTEQDSKDSTYSLSSTLTLSKADYEKHKVYACEVTHQGLSSPVTKSFNRGEC
notes: Type C

EC50 [7]: 0.0952 nM
DC:T MLR result, 0.1 nM antibody (unit not given) [8]: 91.3
DC:T MLR result, 1 nM antibody (unit not given) [8]: 121
DC:T MLR result, 10 nM antibody (unit not given) [8]: 147
DC:T MLR result, 100 nM antibody (unit not given) [8]: 155
IC50 (read off the curve) [9]: ~0.9 nM
B5: A17h1-1708-151H7-A (trispecific antibody, human IgG4 S228P, kappa)
heavy: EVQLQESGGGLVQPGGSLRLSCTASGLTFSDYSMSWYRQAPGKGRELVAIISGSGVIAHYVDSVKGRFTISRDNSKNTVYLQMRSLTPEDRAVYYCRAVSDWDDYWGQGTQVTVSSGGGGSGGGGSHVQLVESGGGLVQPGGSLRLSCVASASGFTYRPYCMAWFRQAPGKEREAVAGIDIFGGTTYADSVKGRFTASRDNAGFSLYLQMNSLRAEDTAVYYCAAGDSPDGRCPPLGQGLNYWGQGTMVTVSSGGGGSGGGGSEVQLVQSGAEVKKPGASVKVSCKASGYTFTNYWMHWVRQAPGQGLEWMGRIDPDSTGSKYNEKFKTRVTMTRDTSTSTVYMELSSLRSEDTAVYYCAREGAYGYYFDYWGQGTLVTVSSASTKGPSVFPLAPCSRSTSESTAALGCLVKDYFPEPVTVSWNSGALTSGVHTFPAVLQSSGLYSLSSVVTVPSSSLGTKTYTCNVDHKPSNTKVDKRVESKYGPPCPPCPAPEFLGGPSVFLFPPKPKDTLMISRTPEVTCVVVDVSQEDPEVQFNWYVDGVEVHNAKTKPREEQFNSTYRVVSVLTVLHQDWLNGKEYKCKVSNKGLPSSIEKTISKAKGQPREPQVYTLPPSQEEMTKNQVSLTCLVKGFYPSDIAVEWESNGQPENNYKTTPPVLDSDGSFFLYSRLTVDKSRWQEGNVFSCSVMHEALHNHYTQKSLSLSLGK
light: B4 light

binding result [5]: binds
binding result [6]: binds
B6: 1708-151-2 (bispecific antibody, human IgG4 S228P, kappa)
heavy: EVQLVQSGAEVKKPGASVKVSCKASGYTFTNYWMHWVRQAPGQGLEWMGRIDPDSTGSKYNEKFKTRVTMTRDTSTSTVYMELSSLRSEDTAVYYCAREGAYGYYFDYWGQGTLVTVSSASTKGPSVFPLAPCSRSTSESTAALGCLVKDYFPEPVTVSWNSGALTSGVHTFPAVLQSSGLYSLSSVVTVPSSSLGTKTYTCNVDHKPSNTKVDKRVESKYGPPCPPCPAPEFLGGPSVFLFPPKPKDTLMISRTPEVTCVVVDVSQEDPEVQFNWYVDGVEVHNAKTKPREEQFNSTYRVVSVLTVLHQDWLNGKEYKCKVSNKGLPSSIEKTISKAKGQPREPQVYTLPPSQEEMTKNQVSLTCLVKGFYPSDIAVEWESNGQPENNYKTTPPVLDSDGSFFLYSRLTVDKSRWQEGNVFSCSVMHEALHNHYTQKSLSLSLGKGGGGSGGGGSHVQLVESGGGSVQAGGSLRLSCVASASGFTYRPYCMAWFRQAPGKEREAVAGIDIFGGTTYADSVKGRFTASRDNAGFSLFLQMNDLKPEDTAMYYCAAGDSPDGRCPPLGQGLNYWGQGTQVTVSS
light: B4 light
notes: Anti-PVRIG/TIGIT

binding result [5]: binds
binding result [6]: binds
B7: 1708-151-1 (bispecific antibody, human IgG4 S228P, kappa)
heavy: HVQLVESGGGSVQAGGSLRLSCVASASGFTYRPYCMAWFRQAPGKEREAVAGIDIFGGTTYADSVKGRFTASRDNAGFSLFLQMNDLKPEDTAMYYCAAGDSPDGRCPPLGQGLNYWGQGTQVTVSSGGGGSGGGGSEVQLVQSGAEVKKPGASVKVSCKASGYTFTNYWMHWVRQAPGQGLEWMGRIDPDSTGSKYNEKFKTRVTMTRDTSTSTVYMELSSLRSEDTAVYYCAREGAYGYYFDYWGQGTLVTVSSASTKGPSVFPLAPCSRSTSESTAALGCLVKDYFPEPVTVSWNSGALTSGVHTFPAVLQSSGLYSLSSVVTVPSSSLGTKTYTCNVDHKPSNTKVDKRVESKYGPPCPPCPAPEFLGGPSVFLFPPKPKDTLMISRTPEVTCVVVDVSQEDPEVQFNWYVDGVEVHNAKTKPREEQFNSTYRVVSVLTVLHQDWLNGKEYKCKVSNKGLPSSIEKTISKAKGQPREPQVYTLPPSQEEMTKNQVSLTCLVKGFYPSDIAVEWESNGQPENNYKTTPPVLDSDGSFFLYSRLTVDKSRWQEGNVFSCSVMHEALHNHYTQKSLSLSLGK
light: B4 light
notes: Anti-PVRIG/TIGIT

binding result [5]: binds
binding result [6]: binds
B8: 1708-151-4 (bispecific antibody, human IgG4 S228P, kappa)
heavy: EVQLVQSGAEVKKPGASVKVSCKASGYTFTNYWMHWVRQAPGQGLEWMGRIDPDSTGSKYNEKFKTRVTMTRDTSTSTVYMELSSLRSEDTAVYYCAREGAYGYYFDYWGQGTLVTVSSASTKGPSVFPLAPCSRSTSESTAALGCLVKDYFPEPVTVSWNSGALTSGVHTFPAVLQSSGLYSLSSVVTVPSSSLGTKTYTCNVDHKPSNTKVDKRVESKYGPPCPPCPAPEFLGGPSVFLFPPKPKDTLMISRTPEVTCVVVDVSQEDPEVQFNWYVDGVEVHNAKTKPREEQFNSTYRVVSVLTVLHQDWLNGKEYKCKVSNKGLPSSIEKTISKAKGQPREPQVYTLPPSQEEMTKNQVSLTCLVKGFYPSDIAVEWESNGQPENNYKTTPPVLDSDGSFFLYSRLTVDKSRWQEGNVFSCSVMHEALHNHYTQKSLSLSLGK
light: DIQMTQSPSSLSASVGDRVTITCRASENIYSYLAWYQQKPGKSPKLLIYNARTLAEGVPSRFSGSGSGTDFTLTISSLQPEDFATYYCQYHSGSPLPFGGGTKVEIKRTVAAPSVFIFPPSDEQLKSGTASVVCLLNNFYPREAKVQWKVDNALQSGNSQESVTEQDSKDSTYSLSSTLTLSKADYEKHKVYACEVTHQGLSSPVTKSFNRGECGGGGSGGGGSHVQLVESGGGSVQAGGSLRLSCVASASGFTYRPYCMAWFRQAPGKEREAVAGIDIFGGTTYADSVKGRFTASRDNAGFSLFLQMNDLKPEDTAMYYCAAGDSPDGRCPPLGQGLNYWGQGTQVTVSS
notes: Anti-PVRIG/TIGIT

Reference: patent US20240376204A1 (JIANGSU HENGRUI PHARMACEUTICALS, published 2024)
